What all share (experiment): cell-based or functional assay
Test [1] deals with HIV-1 Env of isolate MGRM-D-003 (clade D) (HIV-1).
Test [2] deals with HIV-1 MGRM-C-005 Env (HIV-1).
Test [3] concerns the target HIV-1 JR-CSF envelope protein (Env) on pseudovirus (HIV-1) (UniProt P20871).
Test [4] has as its target HIV-1 IAVI-C22 envelope protein (Env) on pseudovirus (HIV-1).
The target of test [5] is HIV-1 Env of isolate MGRM-D-011 (clade D) (HIV-1).
Test [6] deals with HIV-1 MGRM-F1-022 Env (pseudovirus) (HIV-1).
In test [7] the target is HIV-1 LAVI_C22 Env (HIV-1).
In test [8] the target is HIV-1 98CN009 envelope glycoprotein (Env) on pseudovirus (HIV-1).
Test [9] has as its target HIV-1 92RW021 envelope glycoprotein (Env) on pseudovirus (HIV-1).
The target of test [10] is HIV-1 MGRM-C-023 Env (HIV-1).
The target of test [11] is HIV-1 97ZA012 envelope glycoprotein (Env) on pseudovirus (HIV-1).
For test [12], the target named is HIV-1 Env of isolate MGRM-G-013 (clade G pseudovirus) (HIV-1).
The target in test [13] is HIV-1 Env of isolate MGRM-D-016 (clade D) (HIV-1).
Test [14] has as its target HIV-1 Env of isolate MGRM-D-026 (clade D) (HIV-1).
Test [15] concerns the target HIV-1 94UG103 envelope glycoprotein (Env) on pseudovirus (HIV-1).
The target of test [16] is HIV-1 MGRM-C-022 Env (HIV-1).
Test [17] deals with HIV-1 MGRM-C-006 Env (HIV-1).
The target of test [18] is HIV-1 Env of isolate MGRM-D-029 (clade D) (HIV-1).
In test [19] the target is HIV-1 Env of isolate MGRM-G-028 (subtype G) (HIV-1).
In test [20] the target is HIV-1 Env of isolate 92UG031 (HIV-1).
In test [21] the target is HIV-1 Env of isolate 94UG103 (HIV-1).
Test [22] deals with HIV-1 Env of isolate MGRM-D-020 (HIV-1).
Test [23] concerns the target HIV-1 Env of isolate 92UG024 (HIV-1).
The target of test [24] is HIV-1 Env of isolate 92UG114 (HIV-1).
The target of test [25] is HIV-1 Env of isolate MGRM-G-025 (subtype G) (HIV-1).
Test [26] addresses HIV-1 Env of isolate MGRM-Chronic-B-001 (HIV-1).

Where only a bound is given, the exact number is not on record here.

As a reminder, the IC50 is the concentration needed to halve the response being measured. Read a high IC50 as lower potency.

Chain of 1443_C16 (PG16) (TCN-116) (antibody) (VH): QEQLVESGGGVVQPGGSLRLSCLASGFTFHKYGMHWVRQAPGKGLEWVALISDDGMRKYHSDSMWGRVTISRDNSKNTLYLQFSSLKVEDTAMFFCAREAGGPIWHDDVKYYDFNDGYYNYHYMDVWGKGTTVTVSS
Chain of 1443_C16 (PG16) (TCN-116) (antibody) (VL): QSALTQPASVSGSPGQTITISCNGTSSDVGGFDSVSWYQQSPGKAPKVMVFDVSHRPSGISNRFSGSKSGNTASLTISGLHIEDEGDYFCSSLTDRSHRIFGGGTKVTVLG
Chain of PGT-142 (4995_E20) (antibody) (VH): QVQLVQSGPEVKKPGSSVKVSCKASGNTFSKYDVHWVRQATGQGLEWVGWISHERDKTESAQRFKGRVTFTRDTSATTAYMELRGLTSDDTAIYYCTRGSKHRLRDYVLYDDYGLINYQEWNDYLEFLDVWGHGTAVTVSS
Chain of PGT-142 (4995_E20) (antibody) (VL): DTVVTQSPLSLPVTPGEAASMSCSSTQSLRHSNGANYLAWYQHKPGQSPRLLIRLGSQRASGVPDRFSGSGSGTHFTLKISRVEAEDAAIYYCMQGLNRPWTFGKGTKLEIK
Chain of PGT-143 (4980_N08) (antibody) (VH): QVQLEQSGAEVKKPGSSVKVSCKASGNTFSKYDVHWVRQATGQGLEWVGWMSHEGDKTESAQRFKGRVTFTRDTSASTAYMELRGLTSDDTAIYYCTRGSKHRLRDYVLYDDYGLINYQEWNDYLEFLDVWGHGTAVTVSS
Chain of PGT-143 (4980_N08) (antibody) (VL): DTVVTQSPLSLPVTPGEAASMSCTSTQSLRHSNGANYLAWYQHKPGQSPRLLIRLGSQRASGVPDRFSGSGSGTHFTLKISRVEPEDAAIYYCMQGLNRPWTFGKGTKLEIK
Chain of PGT-141 (4964_G22; 4993_K13) (antibody) (VH): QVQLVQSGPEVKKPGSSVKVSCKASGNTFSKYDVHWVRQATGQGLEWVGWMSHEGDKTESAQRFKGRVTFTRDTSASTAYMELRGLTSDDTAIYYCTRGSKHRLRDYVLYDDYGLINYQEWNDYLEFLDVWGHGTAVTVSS
Chain of PGT-144 (4970_K22) (antibody) (VH): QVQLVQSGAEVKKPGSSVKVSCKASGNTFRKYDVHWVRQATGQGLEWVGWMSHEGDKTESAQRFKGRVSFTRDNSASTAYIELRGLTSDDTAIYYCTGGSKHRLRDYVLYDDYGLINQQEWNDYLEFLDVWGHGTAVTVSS
Chain of PGT-144 (4970_K22) (antibody) (VL): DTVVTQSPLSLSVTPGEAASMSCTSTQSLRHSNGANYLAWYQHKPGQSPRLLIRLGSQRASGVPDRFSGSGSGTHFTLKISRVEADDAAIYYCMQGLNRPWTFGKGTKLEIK

2F5 (antibody): the IC50 (µg/ml), pseudovirus neutralization was over 50 µg/mL in test [1]; over 50 µg/mL in test [5]; 1.26 µg/mL in [6]; over 50 µg/mL in test [8]; 4.16 µg/mL in [9]; over 50 µg/mL in [11]. For the same substance, the IC50 (µg/ml), pseudovirus neutralization was 0.59 µg/mL in [12], 9.85 µg/mL in test [13], 4.37 µg/mL in [14] and over 50 µg/mL in test [18]. The IC50 in [2], in test [7], in test [10], in [16] and in [17] was over 50 µg/mL each time. Moreover, the neutralization IC50 in [3] is 3.36 µg/mL; in test [4], over 50 µg/mL. For the same substance, the IC90 (pseudovirus neutralization) in [15] amounted to 46.6 µg/mL.

Regarding 2G12 (antibody), the IC50 (µg/ml), pseudovirus neutralization in test [1] is over 50 µg/mL; in [5] it was 1.5 µg/mL; in [6] it was over 50 µg/mL; in test [8], over 50 µg/mL; in [9], over 50 µg/mL; in test [11], over 50 µg/mL. Moreover, the IC50 (µg/ml), pseudovirus neutralization in test [12], in test [13], in test [14] and in [18] was over 50 µg/mL in each case. Also, the IC50 in test [2], in [7], in [10], in [16] and in test [17] was over 50 µg/mL each time. The neutralization IC50 in [3] was 0.66 µg/mL; in test [4], over 50 µg/mL. This substance also yielded an IC90 (pseudovirus neutralization) in test [15] of over 50 µg/mL.

Turning to 4E10 (antibody), the IC50 (µg/ml), pseudovirus neutralization came to 2.49 µg/mL in test [1]; 0.91 µg/mL in test [5]; 1.01 µg/mL in test [6]; 2.46 µg/mL in test [8]; 4.87 µg/mL in [9]; 4.7 µg/mL in [11]. The IC50 (µg/ml), pseudovirus neutralization in [12] stood at 1.15 µg/mL; in [13], 15.4 µg/mL; in [14], 2.95 µg/mL; in [18], 5.3 µg/mL. The IC50 in test [2] stood at 16.4 µg/mL; in test [7], 2.02 µg/mL; in test [10], 1.95 µg/mL; in [16] it was 5.71 µg/mL; in test [17], 4.94 µg/mL. Further, the values for the neutralization IC50 in test [3] and in test [4] were 6 µg/mL and 1.02 µg/mL, respectively. Further, in test [15], the IC90 (pseudovirus neutralization) was over 50 µg/mL.

Regarding 1443_C16 (PG16) (TCN-116) (antibody), the IC50 (µg/ml), pseudovirus neutralization in test [1] came to 0.01 µg/mL; in [5], 0.01 µg/mL; in [6] it was 0.08 µg/mL; in test [8], 5.76 µg/mL; in test [9], 0.11 µg/mL; in test [11] it was 2.55 µg/mL. The IC50 (µg/ml), pseudovirus neutralization is over 50 µg/mL in test [12], 0.02 µg/mL in test [13], over 50 µg/mL in test [14] and over 50 µg/mL in [18]. The IC50 in [2] worked out at 2.55 µg/mL; in test [7] it was 0.02 µg/mL; in test [10], 0.09 µg/mL; in [16] it was 0.25 µg/mL; in test [17] it was 2.62 µg/mL. Besides, the neutralization IC50 in test [3] is under 0.0025 µg/mL; in test [4] it was 0.0687 µg/mL. The same substance came in with an IC90 (pseudovirus neutralization) in [15] of 1.59 µg/mL.

For 1495_C14 (PGC14) (antibody), the IC50 (µg/ml), pseudovirus neutralization in test [1] is over 50 µg/mL; in [5], over 50 µg/mL; in test [6] it was over 50 µg/mL; in [8] it was 43 µg/mL; in test [9], over 50 µg/mL; in test [11], over 50 µg/mL. Further, the IC50 (µg/ml), pseudovirus neutralization in test [12], in [13], in [14] and in test [18] was over 50 µg/mL throughout. Also, the IC50 is over 50 µg/mL in [2]; 25 µg/mL in test [7]; over 50 µg/mL in test [10]; over 50 µg/mL in [16]; over 50 µg/mL in test [17]. Also, the results for the neutralization IC50 in [3] and in [4] were over 50 µg/mL and 9.5 µg/mL, respectively.

Consider 1496_C09 (PG9) (TCN-109) (antibody), for which the IC50 was 2.98 µg/mL in [2]; 3.6 µg/mL in test [20]; 0.34 µg/mL in [21]; 0.51 µg/mL in test [10]; 0.19 µg/mL in test [16]; 0.23 µg/mL in test [17]. The neutralization IC50 was under 0.0025 µg/mL in test [3], 0.891 µg/mL in [19] and 24.9 µg/mL in [4]. Also, the IC50 (µg/ml), pseudovirus neutralization is 0.06 µg/mL in test [5]; 0.06 µg/mL in [6]; 1.07 µg/mL in test [8]; 0.05 µg/mL in test [9]; 1.27 µg/mL in test [11]; 0.1 µg/mL in test [13]. In test [14], this substance returned an IC50 (µg/ml), pseudovirus neutralization of 17.5 µg/mL. The IC50 (µg/mL), pseudovirus neutralization in test [22] amounted to 1.67 µg/mL; in test [23], 1.86 µg/mL; in [24], 40.6 µg/mL. This substance also came in with an IC50 (ug/ml), neutralizing activity in test [15] of 0.31 µg/mL. Further, the IC50 neutralization in test [15] was found to be 0.31 µg/mL. In [15], this substance gave an IC80, neutralization of 1.95 µg/mL. The substance further had an IC90 (pseudovirus neutralization) in test [15] of 3.37 µg/mL. In addition, the IC90, neutralization in [15] was 5.54 µg/mL.

Consider PGT-121 (antibody), for which the IC50 (µg/mL), pseudovirus neutralization in test [20] is over 50 µg/mL. Further, in [21], the IC50 (µg/mL), pseudovirus neutralization is 2.52 µg/mL; the Primary Neutralization Index (B cell culture well 4838 L06) was found to be 1.4; the Primary Neutralization Index (B cell culture well 4873 E03) stood at 0.8.

As to PGT-122 (antibody), the IC50 (µg/mL), pseudovirus neutralization in test [20] is over 50 µg/mL; in test [21], 2.04 µg/mL.

Regarding PGT-141 (4964_G22; 4993_K13) (antibody), the neutralization IC50 is over 50 µg/mL in test [25] and 24.9 µg/mL in test [19].

Turning to PGT-142 (4995_E20) (antibody), the neutralization IC50 in test [25] is over 50 µg/mL; in test [19], 30.3 µg/mL.

For the substance PGT-143 (4980_N08) (antibody), the figures for the neutralization IC50 in [25] and in test [19] were over 50 µg/mL and 43 µg/mL, respectively.

Turning to PGT-144 (4970_K22) (antibody), the neutralization IC50 in test [25] and in test [19] was over 50 µg/mL each time.

On to PGV04 (antibody), for which the neutralization IC50 in [25] is 1.61 µg/mL; in [19], 0.352 µg/mL. For the same substance, the half-inhibitory concentration (IC50) in [20] was determined as 4.46 µg/mL; in test [21], 0.202 µg/mL. The IC50 (µg/mL), pseudovirus neutralization was 0.097 µg/mL in [22], 0.201 µg/mL in test [23] and 0.461 µg/mL in test [24].

With VRC01 (antibody), the neutralization IC50 in test [25] was determined as 0.292 µg/mL; in test [19] it was 0.164 µg/mL. In [26], the IC50 turned out to be 0.066 µg/mL. This substance also came in with an IC50, pseudovirus neutralization in test [22] of 0.192 µg/mL.

These data come from US20200024330A1.
